What is called EC50 is the midpoint of the concentration-response curve. What is called Kd is a measure of binding affinity in units of concentration. As a reminder, the EC50 (read off the curve) is the midpoint of the concentration-response curve.

Assay [1] has as its target T1, human PD-L1 on CHO-K1 cells (W315-CHO-K1.hPro1.C11) (human, UniProt Q9NZQ7 19-290).
T1 construct: whole, on cells; also called cell surface human PD-L1; Human PD-L1-expressing CHO-K1 cell
Kind of assay: FACS competition on human PD-L1 CHO-K1 cells: titrated W3156 antibody mixed with 0.5 ug/mL biotinylated BMK8.hIgG4 (m5), SA-PE [A]. As for the experimental part: (§1) Human PD-L1 expressing cells W315-CHO-K1.hPro1.C11 were transferred into 96-well U-bottom plates at a density of 1×10⁵ cells/well. […] Then the mixture was added to the cells in 96-well plates and incubated at 4° C. for 1 hour. After washing with 1×PBS/1% BSA, the secondary antibody SA-PE was applied and incubated with cells at 4° C. for 1 hour. The cells were then washed and resuspended in 1×PBS/1% BSA. MFI of the cells was measured by a flow cytometer and analyzed by FlowJo (version 7.6.1).

For assay [2], the target named is T1, human PD-L1 on CHO-K1 cells …. Briefly: FACS competition on human PD-L1 CHO-K1 cells: titrated W3156 antibody mixed with 0.5 ug/mL biotinylated BMK6.hIgG4 (m4), SA-PE [A]. As for the experimental part: as §1
The target of assay [3] is T2, cynomolgus monkey PD-L1 on 293F cells (W315-293F.cynoPro1.2A2) (cynomolgus monkey, UniProt G7PSE7 19-290).
T2 construct: whole, on cells; also called cell surface monkey PD-L1; cynoPD-L1
Briefly: FACS on cynomolgus PD-L1 293F cells. As to the method:
(§2) After washing with 1×PBS/1% BSA, the secondary antibody PE-labeled goat anti-human IgG was applied and incubated with cells at 4° C. for 1 hour. […] Human IgG1 and IgG4 isotype antibodies were used as negative control. The cells were then washed and resuspended in 1×PBS/1% BSA. MFI of the cells was measured by a flow cytometer (BD) and analyzed by FlowJo (version 7.6.1).

The target in assay [4] is T1, human PD-L1 on CHO-K1 cells …. Briefly: FACS affinity on human PD-L1 cells, quantitative beads. As to the method: (§3) Binding affinities of testing antibodies to cell surface human, cynomolgus and mouse PD-L1 were determined by flow cytometry on the engineering cell lines, respectively. The cells were transferred in to 96-well U-bottom plates (BD) at a density of 5×10⁴ cells/well. Antibodies to be tested were 1: 2-fold serially diluted in 1% BSA/1×PBS and incubated with cells at 4° C. for 1 hr. Then, the plates were centrifuged at 1500 rpm for 4 mins and the supernatant was discarded. The secondary antibody, Alexa647 conjugated goat anti-human IgG Fc (Jackson, Cat No. 109-605-098, Lot No. 121363), was added to re-suspend cells and incubated at 4° C. in the dark for 30 min. The cells were washed once and re-suspended in 100 μL 1% BSA/1×PBS, then measured by flow cytometry (BD Canto II) and analyzed by FlowJo. Fluorescence intensity was converted to bound molecules/cell based on the quantitative beads (Quantum™ MESF Kits, Bangs Laboratories). KD value was calculated by Graphpad Prism5.

In assay [5] the target is PD-L1 (target of the serum stability flow cytometry). Kind of assay: flow cytometry binding to PD-L1 of AP3R2-1A3-z12-hIgG1 kept 0, 1, 4, 7 or 14 days in human serum at 37 C. As to the method: Fresh human serum was prepared from healthy donor by centrifugation. Testing antibody was mixed with serum and ensure the serum content >90% of total volume. The mix aliquots were incubated at 37° C. for 0 day, 1 day, 4 days, 7 days and 14 days, respectively. At the indicated time point the samples were quickly-frozen in liquid nitrogen and stored at −80° C. until analysis. The bindings to PD-L1 of the aliquots at above time points were evaluated by flow cytometry, respectively.
For orientation: In flow cytometry, cells or beads pass a laser one at a time.

Assay [6] concerns the target T1, human PD-L1 on CHO-K1 cells …. Briefly: FACS on human PD-L1 CHO-K1 cells. As to the method:
as §2

Assay [7] has as its target T3, mouse PD-L1 on 293F cells (W315-293F.mPro1.C1) (mouse, UniProt Q9EP73 19-290).
T3 construct: whole, on cells; also called cell surface mouse PD-L1; Mouse PD-L1-expressing 293F cell
Briefly: FACS affinity on mouse PD-L1 cells, quantitative beads. As to the method:
as §3

Assay [8] deals with T3, mouse PD-L1 on 293F cells …. Briefly: FACS on mouse PD-L1 293F cells. As to the method:
as §2

T1 sequence (Q9NZQ7 19-290): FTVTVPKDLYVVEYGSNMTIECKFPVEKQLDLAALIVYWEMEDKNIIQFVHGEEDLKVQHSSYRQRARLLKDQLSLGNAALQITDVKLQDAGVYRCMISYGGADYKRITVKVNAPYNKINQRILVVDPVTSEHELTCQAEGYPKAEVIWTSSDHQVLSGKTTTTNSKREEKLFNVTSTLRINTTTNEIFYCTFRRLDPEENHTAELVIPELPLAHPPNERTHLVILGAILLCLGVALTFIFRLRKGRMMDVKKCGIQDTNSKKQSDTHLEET
T3 sequence (Q9EP73 19-290): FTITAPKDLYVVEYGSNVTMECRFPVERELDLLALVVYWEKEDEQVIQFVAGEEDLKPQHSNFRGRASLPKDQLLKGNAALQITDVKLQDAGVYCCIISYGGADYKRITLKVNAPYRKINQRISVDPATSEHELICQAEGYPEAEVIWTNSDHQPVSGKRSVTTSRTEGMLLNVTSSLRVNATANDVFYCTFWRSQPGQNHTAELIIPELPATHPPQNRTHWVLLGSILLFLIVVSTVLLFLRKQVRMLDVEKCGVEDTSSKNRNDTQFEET
Chain of PD-L1 (target of the serum stability flow cytometry) (chain, as listed by the source): as the sequence (Q9NZQ7 19-290) above
T2 sequence (G7PSE7 entry or part of it): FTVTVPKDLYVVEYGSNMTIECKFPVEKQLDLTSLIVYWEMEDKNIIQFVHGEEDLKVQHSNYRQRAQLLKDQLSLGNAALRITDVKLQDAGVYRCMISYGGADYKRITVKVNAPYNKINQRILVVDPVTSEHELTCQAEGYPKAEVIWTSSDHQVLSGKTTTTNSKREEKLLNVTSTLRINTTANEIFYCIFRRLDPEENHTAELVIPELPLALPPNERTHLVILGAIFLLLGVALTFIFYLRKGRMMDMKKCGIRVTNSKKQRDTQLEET

B1: AP3R2-1A3-z12-hIgG1 (Fc fusion)
chain: EVQLVESGGGLVQPGGSLRLSCAASGHFSNLAVNWFRQAPGKERELVAGILWSGGSTFYADSVKGRFTISRGNAENMLYLQMNSLRAEDTAVYYCNTGTNWGQGTLVTVSS
notes: VHH-Fc (hIgG1) fusion of the humanized VHH; also called W3156-AP3R2-1A3-z12-hIgG1; W3156 antibody; not shown: Fc of human IgG1
Turning to B1, the “IC50 (read off the curve)” value in assay [1] and in assay [2] was around 3 nM throughout. In addition, the figures for the EC50 in assay [3], in assay [6] and in assay [8] were 2.06 nM, 0.458 nM and 1.24 nM, respectively. Besides, the figures for the equilibrium dissociation constant (Kd) in assay [4] and in assay [7] were 0.26 nM and 0.69 nM, respectively. Besides, the “EC50 (read off the curve)” value in assay [5] is around 0.7 nM.

The values are drawn from patent US20220403031A1 (WUXI BIOLOGICS IRELAND, published 2022).
